Numbering of substitutions follows the chain as printed. Where two headings read alike, the source gives them in different places.

The values below come from patent EP4534554A1 (Corregene Biotechnology Co., Ltd., dated 2025).

The target of assay [1] is T1, MAGE-A1 peptide on HLA-A*02:01 (human).
T1 peptide: KVLEYVIKV
Briefly: MAGE-A1 Dextramer gradient on transduced JKR9; unit inferred; full-length, on cells.

Assay [2] deals with MAGE-A1 target antigen peptide … presented by HLA-A*02:01 on cells (human). The assay can be described thus: cell-based or functional assay.
The target of assay [3] is MAGE-A1 Dextramer (human). The assay can be described thus: MAGE-A1 Dextramer gradient staining (MFI) of cells expressing the TCR, flow cytometry.
Assay [4] concerns the target MAGE-A1 Dextramer (human). Briefly: KD-SPR estimated from Dextramer staining MFI by the linear formula of Figure 6; not measured by SPR.
The target of assay [5] is T1, MAGE-A1 peptide on HLA-A*02:01. Briefly: KD-SPR estimated from Dextramer MFI by the formula calibrated on gp100 TCRs, not measured; unit inferred; full-length, on cells.
The target is the same in assay [6]. Briefly: JKR9 reporter + peptide-loaded T2, 16 h; full-length, on cells.
For assay [7], the target named is T2, MAGE-A1 target antigen peptide … presented by HLA-A*02:01 on cells (human). Briefly: cell-based or functional assay. The source holds these as a separate data set.
Assay [8] addresses T2, MAGE-A1 target antigen peptide … …. The assay can be described thus: cell-based or functional assay. The source holds these as a separate data set.

B1: A1A2-M01-623 (TCR, V domains shown)
Valpha: GEDVEQSLFLSVREGDSSVINCTYTDSSQTYLYWYKQEPGAGLQLLTYIFIFQAMKQDQRLTVLLNKKDKHLSLRIADTQTGDSAIYFCAGSGGGTDKLIFGTGTRLQVFP
Vbeta: GAVVSQHPSWVICKSGTSVKIECRSLDFEATTMFWYRQFPKQSLMLMATTDYGSKATYEQGVEKDKFLINHASLTLSTLTVTSAHPEDSSFYICSAREPGQGPWEQYFGPGTRLTVT
With B1, the “EC50 of Dextramer staining” value in assay [1] was 0.187 nM. The same molecule returned an EC50 Value (M), JKR9 reporter activation by peptide-loaded T2 cells in assay [2] of 3.06e-08 M. The EC50 (as a rule, the concentration giving half of the maximal effect) in assay [3] worked out at 0.187 nM. Further, the Kd (commonly the free concentration of one partner at which half of the binding sites on the other are occupied at equilibrium, for simple one-to-one binding) in assay [4] was 0.337 nM; in assay [5] it was roughly 0.337 nM. For the same molecule, in assay [6], the EC50 of peptide came out at 30.6 nM.

B2: A1A2-M01-625 (TCR, V domains shown)
Valpha: B1 Valpha with Q29M, I51A, Q53E, A54S
Vbeta: B1 Vbeta
Take B2: in assay [1], the “EC50 of Dextramer staining” value came to 0.0852 nM. This molecule had an EC50 Value (M), JKR9 reporter activation by peptide-loaded T2 cells in assay [2] of 3.52e-08 M. Also, the EC50 in assay [3] stood at 0.0852 nM. Also, the figures for the Kd in assay [4] and in assay [5] were 0.0222 nM and roughly 0.0222 nM, respectively. Moreover, in assay [6], the EC50 of peptide turned out to be 35.1 nM.

B3: A1A2-M01-624 (TCR, V domains shown)
Valpha: B1 Valpha with T25Q, D26Y, S27G, S28M, Q29S, I51S, Q53M, A54D
Vbeta: B1 Vbeta
With B3, in assay [1], the “EC50 of Dextramer staining” value stood at 0.116 nM. This molecule came in with an EC50 Value (M), JKR9 reporter activation by peptide-loaded T2 cells in assay [2] of 2.59e-08 M. Further, the EC50 in assay [3] worked out at 0.116 nM. Further, the Kd was 0.0651 nM in assay [4] and roughly 0.0651 nM in assay [5]. Further, the EC50 of peptide in assay [6] amounted to 25.9 nM.

B4: ht27WT (TCR, V domains shown)
V domain 1: RGEDVEQSLFLSVREGDSSVINCTYTDSSSTYLYWYKQEPGAGLQLLTYIFSNMDMKQDQRLTVLLNKKDKHLSLRIADTQTGDSAIYFCAGSGGGTDKLIFGTGTRLQVFP
V domain 2: GAVVSQHPSWVICKSGTSVKIECRSLDFQATTMFWYRQFPKQSLMLMATSNEGSKATYEQGVEKDKFLINHASLTLSTLTVTSAHPEDSSFYICSAREPGQGPYEQYFGPGTRLTVTE
Regarding B4, the “EC50 Value (M), JKR9 reporter activation by peptide-loaded T2 cells” value in assay [7] turned out to be 2.31e-06 M; in assay [8] it was 1.67e-05 M.
